This note sets out measurements from patent publication US20140287419A1, “Compositions Having Dicamba Decarboxylase Activity and Methods of Use” (priority 2013, published 2014).

B1: 48 (protein, listed as Amycolatopsis mediterranei)
chain: MASMKLYGLEEHFVTADVIEAWRRRDPGLAEPMMKWAVASDITPALLDVDGGRIAAMDDAGIDTTVLSLTTPGLQNLDAAEAVALQAPTNDLIAAAVRRHPGRFQGFATLATSAPAAAADELRRAVTELGLNGALVNANSRGRALDAPGFWDIYEAAEDLRAPVYLHPGVPVPAVTEAYYRGFGEPVNSMLATGAFGWHYDAGLTILRMIVAGVFDRFPGLQVILGHWGEVVLFYLDRVAAMDKLTALRRPIAEYFRSNIFITPGGISSHKYLRWSLETVGVERIMYASDYPFNTERAGSARRFLDTAPVDEAGRERIAYRNWEELIAGIRR
B2: 49 (protein, listed as Streptomyces sp.)
chain: MAKIIALEEHFSDPAVAKAGAARARALSPGFAASYSPASGLPYSPSPEVLENLAEKRLADMDAGGITMQVLSGLGAQTVPADVAPALVAGSNDKAAAAVRAHPDRFAAFAALPTATPEAAVAELDRSVNELGFVGTLIMGRTEGEFLDAPRFEPILARAAALKVPVFLHPGVPPREITDSNYAAGLPTGIGTRLQTAAWGWHQETAVHFLHLVHSGVLDRYPDLQFILGHWGEMIPFYLDRVDEALPQRATGLDRSFHEYFRENVYLAPSGMWSQAQLRFCLETVPLERIVFAVDYPFIGNEGAVPFLEKAELPQADKRKIAHENAERLLGL
B3: 52 (protein, listed as Streptomyces sp.)
chain: B2 chain with R25Q, G75S, T116A, M234T, V285F, Q315E
B4: 54 (protein, listed as Streptomyces sp.)
chain: B2 chain with R25Q, T116A, V128I, D223G, Q315E
B5: 55 (protein, listed as Serratia sp.)
chain: MAKIICLEEHTLDKALVMASMPAALEQAPFLSDWGKTVTDGNLPDRSRPQIEKNDLINIKGADIGRGRLDDMDVAGITMQVLSVGGFPHLISAAEGVDLNRAANDRLADAVNAHPDRFAAFATLPWAQPDSAEKELERAVKELGFKGALLNGRPSTHFLDHPDYDGLLARFNALGVPLYLHPGLPVRSVQQAYYGGFSDEVTARLSMFGWGWHHEAGIHLLRLILSGAFDKYPNLQVISGHWGEMLPFWLQRLDDSLPQAATGLRRTIAQTFKEQVYVTPSGMLTLPHFQFIYALLGAERIIFSVDYPYQTLDGVKAFIQSLPVPEEAKEAIAFRNAERLLGLTS
B6: 50 (protein, listed as Streptomyces sp.)
chain: MARIVTLEEHWTDPAVTAAGMPNLLDHVPGYAAAFDPDTGMPYPRHPELLEDLGAARIADMDRHGITTQVLSLVNTFLPADVAPRLTAAANDAMAAAVEAFPGRFAAFATLPTAVPGAAADELRRCVGELGFVGTMIMGRTDGEFLDQPRFDPILRAASDLSVPVYLHPAPPPVAVSEASYAGGLSPAVSAAFRLAAWGWHQETAVHLLHLVLAGVLDRYPGLQFVLGHWGEFIPFYLDRLDESMPRRMTGLDRTFREYFRDNVFITPSGMFSQAQLRYCADTVGTDRIIHSVDFPMLGNEGAVSFLTDSHLSREDQEKIAHGNADALLGLG
B7: 53 (protein, listed as Granulicella tundricola)
chain: MARTITLEEHFVTDSFLRATGAYDKPAPPWLAQLQPKLLDLGDGRIAAMDEAGIDLQVLSLAALGFDALDAATATPLVHDINDELAAAVRANPTRLAAFASLALKDPQSAARELERAIQKLGFRGVLLDGTTDGLFLDDPRFTPVFEAAVALNVPIYLHPAPPPESVFDTYFTGLPEGVGQMLSIAGWGWHAETALHTLRLITNGVFDRYPTLQLIIGHMGEMLPMALARTSKALSHAARLRQPVAAYFQSNIHLTTSGYFTQPPLRCALDVVGIDRLMFSIDYPFSANTLGRDYLTELEQTLTPEDLAKLIHRNAESLLNLS
B8: 56 (protein)
chain: MAKIICLEEHYLDSELGRACMPVALEQAPFLGDWGKTVADGHNPDRSRPQIEKNALINAKGADLGSRRLRDMDEAGITLQILSVGGFPQLAPEDEAVTLNTAANDRLAEAVRNHPDRFAAFATLPWAQPKDAENELVRAVEKLGFKGALLNGRPSSCFLDHPDYDSLLSRFNKLNVPLYLHPGLPLKSVQQAYFTGFSAEVNARLSMFGWGWHHEAGIHLLRLMLSGAFDKYPNMQVISGHWGEMLPFWLQRLDDSLPLAATGLSRTLTRTFQEHVYVTPSGMLTLPHFKFIYELMGAERILFSVDYPYQTLDGVKTFIDSLPVNKAEKEAIAFRNAERLLGITA
modifications: Enterobacter aerogenes
B9: 58 (protein)
chain: MARVIALEEHYATTEFLRGPGTWLASRPGIVEPAGDLGDGRIAAMDQAGVDLAVLSLAAPGVEQLDPDDAVRLARDCNDQLAAAVRRYPDRLAGFATVPTSAPDRAADELERAVRGLGFPGAVINGHSRGRYLDDPFFEPVLARAAELQAPIYLHPTIPPAGVIESSYAGFAEPVTFALATVGWGWHINTATHALRMILGGVFDRHPSLQMIIGHMGEATSFMLPRFDATLKPELTGLNHPVSSYLRENFHYTFANFNDHATYANLVAQVGIERVAFSADYPFGSMVDARAFLDGLPLSDDERAAISHRNAEKLLGL
modifications: Mycobacterium colombiense
B10: 47 (protein, listed as Serratia odorifera)
chain: MAKIICLEEHTLDKALVMASMPAALAQAPFLSDWGKTITDGNLPDRSRPQIEKNDLINVKGADIGRGRLDDMDEAGITMQVLSVGGFPHLISAAEGVDLNRAANDRLANAVNAHPDRFAAFATLPWAQPDAAEKELERAVKELGFKGALLNGRPSIHFLDHPDYDGLLARFNALGVPLYLHPGLPVRSVQQAYYSGFSDEVTARLSMFGWGWHHEAGIHLLRLILSGAFDKYPNLQVISGHWGEMLPFWLQRLDDSLPQAATGLRRTITQTFREQVYVTPSGMLTLPHFQFIYALLGAERILFSVDYPYQTLDGVKAFIQSLPVPEEAKEAIAFRNAERLFGLTS
B11: 46 (protein, listed as Rhodococcus opacus)
chain: MARIITLEEHYLDPAIAAASAPLARELSPDFAAAYDPASGLSYTPSAQVLQDLGQRRIADMDTHGISMQVLSCLTTQQVPADVAPDLVRAANDTAAAAVRAHPDRFAAFAALPTTAPDAAATELARCIDDLGFVGTMINGRTDGEFLDAPRFDPILATAAARNVPIYLHPAVPPRATSDSNYAGLAPLVTARLQTSAWGWHQETAVHFLHLVLSGVLDRYPNLQFILGHWGEMIPFYLDRLDEALPQAVTNLDRTISDYVRENVYITPSGMFNQAQLQYCVETLGVDRILYSVDYPFIGNDGAVSFLDEANLPDEAKHQIAHQNTEKLLGL
B12: 57 (protein)
chain: MAKLICVEEHVLDPAVGAATQSLVRAEAPYLPDWGSRVLDGRHVADRSRPHVIAPSESARKALEMGEPRLADMDAASIDMQVLSYGGFPQLLPAAQAIDLNRAANDKLALAAQAHPARFAGFATLPWQAPEAAARELERAVKQLGLKGALINGRPGDTFLDDARYAPILAAFDELKVPLYVHPGLPLPAVQAPYYGGFERELSARLAMFAWGWHNEAGIQVVRMLLAGVFDRHPRLQLISGHWGEMVPFFLQRLEDSIPQEASGLQRPIVQTYREHVYISPSGMFTLPHFQFIHALMGAQRILYSIDYPYQSLDGARAFIERLPISDTDKALIAHRNAERLLHL
modifications: Collimonas fungivorans
B13: 51 (protein, listed as Mycobacterium gilvum)
chain: MARVIAIEEHYAHPGLQPAEALANLRKHPQLARIQDKLEDLGAGRLADMDAAGIDMQVLSHTVPGAEALPAAQAVDVVRQTNDDLAEVIAAHPDRFAGFAALPMRDPQAAATELQRAVGTLGFCGAMINGLIEGRFLDHPDFTPLLSTAADLGVPLYLHPSFPPPQVAQIYFGGLPPVLADLLATAGWGWHAETALHVLRLISTGVFDRLPELRVIVGHMGEMIPFALARIDTVLSPMTELRQPVAQYFQTNVWFTTSGYTTFPPLQCALSTVGIDRLIFSVDYPYTDNASARALLDTAPISPVDREKLAHATVEALLRV
B14: 59 (protein)
chain: MAPSVIDAHAHFLPGSLVTALRSRSDAPDIRTDSNGGESFGIYRTRMPYGRTYDALDVRLARMDELGVDRQILSLPGLFGIDSRPVSQALPLVRAFNDGVADLVRKHPDRFSGIAALPLADLDAAQEEYRRARGDLGLSGLILPGDTFVSVAAAERVRPLFELAATIGGLIFVHPGPLPDETGSAVDAPAPHTDSVVHRRVTVDIQNRMTEVMVTLALTDFLAPYPSVPVQVANLGGSLPFVIERMDHVYALRNPEAPPPSLSLRSLYVDAASLGPRAIALAAEVYGADRVLFGSDYPIFDDGRCLDAVRQTRLSPDARALIAGGNAARMLTQT
modifications: alpha proteobacterium

Where a chain is given by its changes, count along the chain named.

One series in a line: 14C assay with IPTG-induced recombinant E. coli cells (14CO2 capture from [14C]-carboxyl-labeled dicamba). Particulars: IPTG-induced recombinant E. coli cells; [14C]-carboxyl-labeled dicamba; 14CO2 capture.
As to B1, the “Dicamba Decarboxylase Activity” value was “High”.
Turning to B2, the “Dicamba Decarboxylase Activity” value is reported as “High”.
Take B3: the “Dicamba Decarboxylase Activity” value is “High”.
For the molecule B4, the “Dicamba Decarboxylase Activity” value is “High”.
As for B5, the “Dicamba Decarboxylase Activity” value is reported as “High”.
B6: the “Dicamba Decarboxylase Activity” value is listed as “High”.
With B7, the “Dicamba Decarboxylase Activity” value is “High”.
On the same count and under the same terms, the value for B8 was “High”; that for B9 was “High”; that for B10 was “High”.
In the case of B11, the “Dicamba Decarboxylase Activity” value is reported as “High”.
The same measure, in the same setting: the value for B12 was “High”.
The same measure, in the same setting: the value for B13 was “High”; that for B14 was “No”.

Still in this series, the particulars now being: dicamba decarboxylation activity of the protein of the given SEQ ID NO.
As for B1, the “Enzymatic Detection level” value is “High”.
As to B2, the “Enzymatic Detection level” value is given as “High”.
Take B3: the “Enzymatic Detection level” value was “High”.
As to B4, the “Enzymatic Detection level” value was “High”.
In the case of B5, the “Enzymatic Detection level” value is “High”.
Still for that read-out and setting: the value for B6 was “High”.
For B7, the “Enzymatic Detection level” value is given as “High”.
As for B8, the “Enzymatic Detection level” value is “High”.
B9: the “Enzymatic Detection level” value is “High”.
On to B10, for which the “Enzymatic Detection level” value is “High”.
As to B11, the “Enzymatic Detection level” value is recorded as “High”.
As to B12, the “Enzymatic Detection level” value is “High”.
In the case of B13, the “Enzymatic Detection level” value was “High”.
Consider B14, for which the “Enzymatic Detection level” value is reported as “No”.
